Measured values from IntAct's records for PubMed 29039417.

B1: BBSome complex member BBS2 (Homo sapiens), Q9BXC9 (parent)
chain: MLLPVFTLKLRHKISPRMVAIGRYDGTHPCLAAATQTGKVFIHNPHTRNQHVSASRVFQSPLESDVSLLSINQAVSCLTAGVLNPELGYDALLVGTQTNLLAYDVYNNSDLFYREVADGANAIVLGTLGDISSPLAIIGGNCALQGFNHEGSDLFWTVTGDNVNSLALCDFDGDGKKELLVGSEDFDIRVFKEDEIVAEMTETEIVTSLCPMYGSRFGYALSNGTVGVYDKTSRYWRIKSKNHAMSIHAFDLNSDGVNELITGWSNGKVDARSDRTGEVIFKDNFSSAIAGVVEGDYRMDGHIQLICCSVDGEIRGYLPGTAEMRGNLMDTSAEQDLIRELSQKKQNLLLELRNYEENAKAELASPLNEADGHRGIIPANTRLHTTLSVSLGNETQTAHTELRISTSNDTIIRAVLIFAEGIFTGESHVVHPSIHNLSSSICIPIVPPKDVPVDLHLKAFVGYRSSTQFHVFESTRQLPRFSMYALTSLDPASEPISYVNFTIAERAQRVVVWLGQNFLLPEDTHIQNAPFQVCFTSLRNGGHLHIKIKLSGEITINTDDIDLAGDIIQSMASFFAIEDLQVEADFPVYFEELRKVLVKVDEYHSVHQKLSADMADHSNLIRSLLVGAEDARLMRDMKTMKSRYMELYDLNRDLLNGYKIRCNNHTELLGNLKAVNQAIQRAGRLRVGKPKNQVITACRDAIRSNNINTLFKIMRVGTASS
partner: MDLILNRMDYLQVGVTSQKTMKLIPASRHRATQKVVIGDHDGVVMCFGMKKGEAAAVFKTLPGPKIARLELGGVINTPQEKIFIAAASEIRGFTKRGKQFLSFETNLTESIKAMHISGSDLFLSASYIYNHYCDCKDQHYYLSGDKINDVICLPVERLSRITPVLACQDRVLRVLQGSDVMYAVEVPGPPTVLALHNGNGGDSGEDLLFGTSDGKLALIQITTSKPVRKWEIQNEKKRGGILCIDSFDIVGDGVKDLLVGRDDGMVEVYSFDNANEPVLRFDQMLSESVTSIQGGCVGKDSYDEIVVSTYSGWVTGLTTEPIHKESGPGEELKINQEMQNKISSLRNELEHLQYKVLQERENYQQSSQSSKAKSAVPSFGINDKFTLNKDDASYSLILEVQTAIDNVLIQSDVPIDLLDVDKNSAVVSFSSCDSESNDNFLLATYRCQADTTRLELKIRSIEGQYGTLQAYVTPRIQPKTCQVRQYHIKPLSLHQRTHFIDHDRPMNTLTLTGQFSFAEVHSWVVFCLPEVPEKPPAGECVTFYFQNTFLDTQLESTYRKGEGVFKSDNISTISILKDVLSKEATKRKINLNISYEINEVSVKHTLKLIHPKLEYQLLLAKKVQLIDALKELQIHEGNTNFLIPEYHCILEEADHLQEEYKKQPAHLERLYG

Variants of: B1
Settings: with BBS7, Q8IWZ6-2

Variant	effect of a mutation on the interaction
D585A	with no effect
D585E	with no effect
D585K	with no effect
Y589A	with no effect
Y589K	with no effect
Y589E	with no effect
S537K	with no effect
S537A	with no effect
S537E	with no effect
V582A	with no effect
V582E	with no effect
V582K	with no effect
R539K	with no effect
R539E	with no effect
R539A	with no effect
Q569K	with no effect
Q569A	with no effect
Q569E	with no effect
G552E	with no effect
G552A	with no effect
G552K	with no effect
G552R	disrupting interaction strength
F535A	with no effect
F535K	disrupting interaction strength
F535E	with no effect
T536K	with no effect

Variant	effect of a mutation on the interaction
T536A	with no effect
T536E	with no effect
I554A	with no effect
I554E	with no effect
I554K	with no effect
A576K	with no effect
A576E	with no effect
S551K	with no effect
S551A	with no effect
S551E	with no effect
M571E	with no effect
M571K	with no effect
M571A	with no effect
R594K	with no effect
R594A	with no effect
R594E	with no effect
L538A	with no effect
L538R	disrupting interaction strength
L538E	with no effect
L538G	disrupting interaction strength
L538K	with no effect
P587E	with no effect
P587K	with no effect
P587A	with no effect
A564E	with no effect
A564H	disrupting interaction strength

Variant	effect of a mutation on the interaction
A564R	disrupting interaction strength
A564K	with no effect
N557K	with no effect
N557E	with no effect
N557A	with no effect
I561K	with no effect
I561C	disrupting interaction strength
I561A	with no effect
I561E	with no effect
F575K	with no effect
F575E	with no effect
F575A	with no effect
V588A	with no effect
V588E	with no effect
V588K	with no effect
F574K	with no effect
F574L	disrupting interaction strength
F574E	with no effect
F574A	with no effect
L593E	with no effect
L593A	with no effect
L593K	with no effect
L550A	with no effect
L550E	with no effect
L550K	with no effect
I548A	with no effect

Variant	effect of a mutation on the interaction
I548K	with no effect
I548E	with no effect
I567E	with no effect
I567K	with no effect
I567A	with no effect
D562A	disrupting interaction strength
D562K	with no effect
D562E	with no effect
I577E	with no effect
I577K	with no effect
I577A	with no effect
E553K	with no effect
E553A	with no effect
D579K	with no effect
D579A	with no effect
D579E	with no effect
D560A	disrupting interaction strength
D560K	with no effect
D560E	with no effect
E591K	with no effect
E591A	with no effect
F590E	with no effect
F590K	with no effect
F590A	with no effect
L580E	with no effect
L580K	with no effect

Variant	effect of a mutation on the interaction
L580A	with no effect
I556A	with no effect
I556K	with no effect
I556E	with no effect
T558A	with no effect
T558E	with no effect
T558K	with no effect
H543E	with no effect
H543A	with no effect
H543K	with no effect
G542A	with no effect
G542E	with no effect
G542K	with no effect
I546E	with no effect
I546K	with no effect
I546A	with no effect
D559K	with no effect
D559E	with no effect
D559A	with no effect
E592A	with no effect
E592K	with no effect
K547E	disrupting interaction strength
K547A	with no effect
E578A	with no effect
E578K	with no effect
Q581K	with no effect

Variant	effect of a mutation on the interaction
Q581A	with no effect
Q581E	with no effect
L544A	with no effect
L544E	disrupting interaction strength
L544S	disrupting interaction strength
L544K	disrupting interaction strength
N540A	disrupting interaction strength
N540E	with no effect
N540K	with no effect
A572K	with no effect
A572E	with no effect
K549A	with no effect
K549E	with no effect
G541A	with no effect
G541E	with no effect
G541K	with no effect
T555A	with no effect
T555K	with no effect
T555H	disrupting interaction strength
T555E	with no effect
S573K	with no effect
S573E	with no effect
S573A	with no effect
S570A	with no effect
S570K	with no effect
S570E	with no effect

Variant	effect of a mutation on the interaction
D566A	with no effect
D566K	with no effect
D566E	with no effect
L563E	with no effect
L563K	with no effect
L563A	with no effect
I568E	disrupting interaction strength
I568K	with no effect
I568A	with no effect
E583K	with no effect
E583A	with no effect
F586E	with no effect
F586K	with no effect
F586A	with no effect
H545K	disrupting interaction strength
H545E	with no effect
H545A	with no effect
A584E	with no effect
A584K	with no effect
G565E	with no effect
G565A	with no effect
G565K	with no effect
